Results taken from publication PMC6779109, “The Glutamate Receptor-Like Protein GLR3.7 Interacts With 14-3-3ω and Participates in Salt Stress Response in Arabidopsis thaliana” (Frontiers in Plant Science, 2019).
Each block holds one binder with its values, some of them ahead of it. Where no end group is shown, it is not given here.

Molecular target: T1, 6His-14-3-3ω recombinant protein (Arabidopsis thaliana, UniProt Q01525 1-259)
T1 construct: 14-3-3ω (GF14/omega) of Arabidopsis thaliana; also called At14-3-3ω; GF14/omega; source: E. coli, purified (Ni-NTA)
T1 sequence (looked up): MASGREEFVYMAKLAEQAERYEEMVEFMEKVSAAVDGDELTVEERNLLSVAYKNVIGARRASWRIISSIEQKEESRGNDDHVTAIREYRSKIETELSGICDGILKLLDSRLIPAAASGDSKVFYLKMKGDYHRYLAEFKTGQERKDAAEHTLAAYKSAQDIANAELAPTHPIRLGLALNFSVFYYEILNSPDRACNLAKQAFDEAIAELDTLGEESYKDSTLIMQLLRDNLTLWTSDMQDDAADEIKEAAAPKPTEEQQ
Assay: quartz crystal microbalance; GST fusion peptide coated on the sensor to saturation, 6His-14-3-3ω injected into PBS; AFFINIX QN μ, Kd by AQUA software
Details: both partners purified

Kd: 2.31 nM
B1: Phosphorylated GST-GLR3.7 P0 recombinant fusion peptide (peptide)
chain: RYRRMERTSSMPRA
modifications: also: phosphorylated, site not given here, fused to GST
notes: C-terminal fragment of AtGLR3.7 holding Thr-858, Ser-859 and Ser-860; also called G-P0-phosphorylated fusion peptide; phosphorylated G-GLR3.7 P0; not shown: RFP (from the NRV vector)

Kd: 1770 nM
B2: GST-GLR3.7 P0 recombinant fusion peptide (nonphosphorylated) (peptide)
chain: RYRRMERTSSMPRA
modifications: also: GST fusion
notes: C-terminal fragment of AtGLR3.7 holding Thr-858, Ser-859 and Ser-860; Cloned between AscI and NotI of the NRV vector (GST, RFP, Strep-tags; Curran et al., 2011) with the amino acids APG after the restriction site; fusion protein about 55 kD; also called G-P0; G-GLR3.7 P0; not shown: RFP (from the NRV vector)
